No end group written: not given here.
Tests used:
[1] = tested on: normal human intestinal epithelial cells FHC; experiment: Effect of gefitinib on normal cells (FHC control in CCK-8 / clone formation); type: cell-based; conditions: gefitinib 4 μM
Source text: • (1) The colorectal cancer cells HT29 (KRas wt) and HCT116 (KRas G13D) in the logarithmic growth phase and the normal human intestinal epithelial cells FHC were digested with pancreatin and then prepared into a single cell suspension, and the cells were evenly inoculated in a 12-well plate by 500 cells per well. […] Cell culture solution was replaced every other 1-2 days, and the culture was stopped until cell clones (more than 50 cells were considered as one clone) were seen under a light microscope. • (3) After the supernatant of each group was discarded, the cells were washed twice with the PBS buffer solution, and dried in air. A proper amount of methanol stationary liquid was added into each well for cell fixation for 15 minutes, and residual stationary liquid in the well was washed off with PBS solution, and dried in air. A proper amount of crystal violet staining solution was added into each well for cell staining for 15 minutes, and residual staining solution in the well was washed off with PBS solution, and dried in air. The cell clones seen in the auxiliary wells of each group were counted under an inverted microscope and the number of the clones was calculated. • (4) Statistical analysis was carried out by using GraphPad Prism8 software, and one way anova was used to compare means of multiple groups. The difference was statistically significant when P<0.05.

[2] = tested on: tumors derived from the KRas mutant-type HCT116 cells; experiment: In vivo Cy5 imaging of tumor targeting, HCT116 tumors; parameters: species or system mice; conditions: tail vein 60 μM, 100 μL, 2.5 hours, compared with Cy5 single molecule
Source text: (§1) • (1) 10 female Balb/c nude mice aged 4 weeks to 5 weeks (Guangdong Laboratory Animal Center) were purchased, and then 500,000 HT29cells and 500,000 HCT116 cells were subcutaneously injected into left and right sides of the mice respectively. One week later, the mice were divided into two groups, with five mice in each group, which were the experimental group and the control group respectively. Raising and experiment of the mice were both carried out in the Laboratory Animal Center of Sun Yat-sen University, and all the operations were in accordance with the management method of laboratory animals of Sun Yat-sen University and complied with the animal ethical rules. • (2) The TKD-Cy5 molecule and the Cy5 single molecule constructed above were injected into the mice by tail vein at a concentration of 60 μM and a volume of 100 μL, wherein the TKD-Cy5 injection group was the experimental group and the Cy5 single molecule injection group was the control group. • (3) After 2.5 hours of tail vein injection, the mice were anesthetized with isoflurane. Cy5 imaging detection was conducted by using IVIS Lumina (PerkinElmer), with a fluorescence detection form of fluorescence. • (4) Experimental results were shown in FIG. 15.

[3] = tested on: tumors derived from the KRas wild-type cells HT29; experiment: In vivo Cy5 imaging of tumor targeting, HT29 tumors; parameters: species or system mice; conditions: tail vein 60 μM, 100 μL, 2.5 hours, compared with Cy5 single molecule
Source text: as §1

[4] = In vivo Cy5 imaging, other tissues and organs; parameters: species or system mice; conditions: tail vein 60 μM, 100 μL; 2.5 hours
Source text: as §1

Row | Compound | toxic and side effects on normal cells [1] | aggregation in tumors (Cy5 imaging) [2] | aggregation in tumors (Cy5 imaging) [3] | targeting of other tissues and organs (Cy5 imaging) [4]
1 | COc1cc2ncnc(Nc3ccc(F)c(Cl)c3)c2cc1OCCCN1CCOCC1 [gefitinib] | could not cause toxic and side effects on normal cells |  |  | 
2 | TKD-Cy5: TKD molecules labeled with fluorescent dye Cy5 to form TKD-Cy5 covalent conjugates (TKDNNLLGRFELSG; also: Cy5 dye conjugate, site not given here; UniProt P0DMV8 450-463, looked up, fragment) |  | could aggregate in tumors | could aggregate in tumors | except bladder retention caused by metabolism in vivo as in the control group, TKD-Cy5 could not target other tissues and organs of the mice

Reference: US12508311B2, “Fusion protein, and preparation method and use thereof” (SUN YAT-SEN UNIVERSITY, priority 2021, dated 2025)
